Our source for the percent of parent values is PMC9618391 (2022).

First the molecules themselves.
B1: wild-type human sodium/iodide symporter (hNIS) [human] / μ1B (AP1M2) expressed from cDNA in COS-7 cells [not stated] (parent complex)
chain 1: MEAVETGERPTFGAWDYGVFALMLLVSTGIGLWVGLARGGQRSAEDFFTGGRRLAALPVGLSLSASFMSAVQVLGVPSEAYRYGLKFLWMCLGQLLNSVLTALLFMPVFYRLGLTSTYEYLEMRFSRAVRLCGTLQYIVATMLYTGIVIYAPALILNQVTGLDIWASLLSTGIICTFYTAVGGMKAVVWTDVFQVVVMLSGFWVVLARGVMLVGGPRQVLTLAQNHSRINLMDFNPDPRSRYTFWTFVVGGTLVWLSMYGVNQAQVQRYVACRTEKQAKLALLINQVGLFLIVSSAACCGIVMFVFYTDCDPLLLGRISAPDQYMPLLVLDIFEDLPGVPGLFLACAYSGTLSTASTSINAMAAVTVEDLIKPRLRSLAPRKLVIISKGLSLIYGSACLTVAALSSLLGGGVLQGSFTVMGVISGPLLGAFILGMFLPACNTPGVLAGLGAGLALSLWVALGATLYPPSEQTMRVLPSSAARCVALSVNASGLLDPALLPANDSSRAPSSGMDASRPALADSFYAISYLYYGALGTLTTVLCGALISCLTGPTKRSTLAPGLLWWDLARQTASVAPKEEVAILDDNLVKGPEELPTGNKKPPGFLPTNEDRLFFLGQKELEGAGSWTPCVGHDGGRDQQETNL
chain 2: MSASAVFILDVKGKPLISRNYKGDVAMSKIEHFMPLLVQREEEGALAPLLSHGQVHFLWIKHSNLYLVATTSKNANASLVYSFLYKTIEVFCEYFKELEEESIRDNFVIVYELLDELMDFGFPQTTDSKILQEYITQQSNKLETGKSRVPPTVTNAVSWRSEGIKYKKNEVFIDVIESVNLLVNANGSVLLSEIVGTIKLKVFLSGMPELRLGLNDRVLFELTGRSKNKSVELEDVKFHQCVRLSRFDNDRTISFIPPDGDFELMSYRLSTQVKPLIWIESVIEKFSHSRVEIMVKAKGQFKKQSVANGVEISVPVPSDADSPRFKTSVGSAKYVPERNVVIWSIKSFPGGKEYLMRAHFGLPSVEKEEVEGRPPIGVKFEIPYFTVSGIQVRYMKIIEKSGYQALPWVRYITQSGDYQLRTS

In the test the parent is B1. Kind of test: co-immunoprecipitation with Western blot quantification; COS-7 cells cotransfected with hNIS and μ1B; IP α-μ1B, WB α-hNIS; parent: 100; read off a plot. (In western blotting, separated proteins are transferred to a membrane and probed.)
Regarding chain 1 L587A, the percent of parent is ~100 % Relative to hNIS WT.

In the case of chain 1 L583A, the percent of parent is ~5 % Relative to hNIS WT.

With chain 1 L121A, the percent of parent is ~60 % Relative to hNIS WT.

As for chain 1 L594A, the percent of parent is ~84 % Relative to hNIS WT.

Regarding chain 1 L562A, chain 1 L563A, the percent of parent is ~32 % Relative to hNIS WT.

Turning to chain 1 Y118A, the percent of parent is ~61 % Relative to hNIS WT.

Take chain 1 Y120A: the percent of parent is ~83 % Relative to hNIS WT.
